Experimental findings from US11091559B2, “Anti-ALK antibodies and methods for use thereof” (Celldex Therapeutics, Inc., priority 2015, dated 2021) are described below.

One may read the Kd as the concentration at which binding is half-saturated.

Data set [1] addresses murine ALK (purified mouse ALK antigen) (Mus musculus, UniProt P97793). The experiment in a line: Mouse ALK cross-reactivity, solid-state ELISA. The class given is binding. Set-up: key: − none; + weak; ++ moderate; +++ strong. Conditions: cross-reactivity with murine ALK. The method, then: Purified mAbs were evaluated for their ability to bind murine ALK by solid-state ELISA, or flow cytometry on Neuro-2a cells that express low levels of endogenous murine ALK. […]
(In general: An ELISA detects its analyte on a solid surface through an enzyme-linked reagent.)

In data set [2] the test system is NB1 cells. Briefly: NB1 cell morphology. The class given is cell-based, human. Conditions: NB1 cells treated with antibody. The text has this:
By contrast, treatment with Ab324, an ALK agonist, caused the cells to spread out.

In data set [3] the test system is ALK (total protein levels in NB1 cells). The experiment in a line: ALK turnover (total protein levels) by Western blot, 24 hour treatment of NB1 cells. The class given is cell-based, human. The arrangement: key: − none; + weak; ++ moderate; +++ strong. The text has this:
FIG. 5 depicts a Western blot of a panel of ALK antibodies.
See also Table 18, below.
(Immunoblotting shows a protein as a band on a membrane.)

Data set [4] has as its system patient-derived (PDX) neuroblastoma ALK F1174L tumor. The experiment in a line: Patient-derived (PDX) neuroblastoma ALK F1174L tumor model. It counts as in vivo, mouse. The following applies: two weekly intraperitoneal doses at 10 mg/kg, two-week period, in comparison with control IgG1. The text has this:
(§1) FIGS. 8A-B depict the in vivo antitumor activity of the Ab326 anti-ALK antibody in a patient-derived (PDX) neuroblastoma ALK F1174L tumor model compared with control IgG1 (A) and a western blot of tumor homogenates harvested from the patient-derived tumor model showing relative levels of total ALK and phosphorylated ALK in Ab326-treated and control IgG1-treated mice (B). GAPDH is included in the western blot of FIG. 8B as a control for protein level.
Patient-derived (PDX) neuroblastoma tumor model mice were produced. […] Mice received two weekly intraperitoneal doses of Ab326 or a control IgG1 at 10 mg/kg.
(§2) The effect of Ab326, generated in Example 1, on the patient-derived NB tumor mouse model was consistent with its inhibitory effect on phosphorylation of ALK and downstream signaling (FIG. 8A). Tumor volume was reduced over a two-week period in comparison with a control IgG1 antibody.

The subject of data set [5] is ALK (basal phosphorylation in NB1 cells). Briefly: Western blot of ALK phosphorylation in NB1 cells. It counts as cell-based, human. As for the experimental part:
Lysed cells were subjected to SDS-PAGE, transferred to nitrocellulose and immunoblotted with antibodies against total, and phospho-specific ALK, AKT, and MAPK. FIG. 4B depicts an ELISA of NB1 cells grown in media with reduced serum and treated with 30-100 nM of each antibody for 1-2 hours. Cell lysates were incubated on ELISA plates with an anti-ALK antibody, followed by incubation with a pan phosphotyrosine antibody coupled to HRP.
Cell lysates were subjected to SDS-PAGE and transferred to nitrocellulose. Immunoblotting was performed with antibodies against total, and phospho-specific ALK, AKT, and MAPK (purchased from Cell Signaling and utilized per manufacturer's instructions). HRP (horse radish peroxidase)-conjugated secondary antibodies (Thermo Scientific, Waltham, Mass.) were used along with Supersignal West Pico Chemiluminescent Substrate (Thermo Scientific, Waltham, Mass.) to image blots.
Anti-ALK monoclonal antibodies generated in Example 1 were evaluated via Western blotting for their ability to activate or inhibit basal levels of ALK phosphorylation in NB1 cells (FIG. 4A). A subset of ALK antibodies stimulated ALK tyrosine phosphorylation and a different subset of antibodies inhibited basal levels of ALK phosphorylation. See also Table 18, below. […] That is, ALK antibodies that stimulated ALK tyrosine phosphorylation increased MAPK and AKT phosphorylation, whereas ALK antibodies that inhibited ALK tyrosine phosphorylation decreased basal levels of MAPK and AKT phosphorylation (FIG. 4A). Similar results were obtained in ELISA-based ALK phosphorylation assays from lysates of NB1 cells treated with ALK antibodies (FIG. 4B).

Data set [6] has as its target C-terminal region of human ALK ECD (T637-S1038) (Homo sapiens, UniProt Q9UM73). The experiment in a line: Competitive binding assay (epitope binning) by flow cytometry. The following applies: antibodies to the C-terminal region. The method, then: Antibodies that bind to the C-terminal region of human ALK ECD (T637-S1038) were further characterized using a competitive binding assay. A pairwise matrix approach was used whereby each antibody was fluorescently labeled and tested for its ability to bind to ALK-expressing cells pre-incubated with an unlabeled antibody. The ability of both antibodies to bind the C-terminal domain simultaneously was tested via flow cytometry. If both antibodies bound simultaneously, they were put into different bins and considered to belong to a separate epitope class.

The subject of data set [7] is NB1 cells. Briefly: Crizotinib titration and co-titration with ALK antibodies, killing of NB1 cells. The class given is cell-based, human. The following applies: co-titration of crizotinib with the antibody.
The target of data set [8] is T1, cell surface mALK on Neuro2a cells (Mus musculus, UniProt P97793).
T1 construct: Neuro-2a cells that express low levels of endogenous murine ALK; endogenous in cells; host or cells: Neuro-2a (Neuro2a) mouse neuroblastoma cells
Briefly: KD of humanized antibodies on Neuro2a (mouse) cells. Conditions: FACS, mean. The class given is binding. As for the experimental part: (§3) Amino acid residues that differ between rat ALK and mouse ALK are boxed. KD values for both NB1 (human) cells and Neuro2a (mouse) cells were also determined.

In data set [9] the target is T2, total ALK and phosphorylated ALK in tumor homogenates (Homo sapiens, UniProt Q9UM73, F1174L).
T2 construct: Western blot analysis of homogenates of tumors harvested 72 hours after the second dose; from tissue; host or cells: patient-derived (PDX) neuroblastoma tumors grown in mice
Briefly: Western blot of tumor homogenates from the PDX model. The class given is in vivo, mouse. The following applies: tumors harvested 72 hours after the second dose, vs control IgG1.
Text: as §1, §2

Data set [10] deals with ALK on the surface of NB1 cells. The experiment in a line: KD determination by flow cytometry on NB1 cells. The class given is binding. Conditions: NB1 (human) cells, FACS, mean. The method, then:
FIG. 3 depicts the apparent affinities (KD) of ALK antibodies for ALK expression on the surface of NB1 cells. KD was determined by flow cytometry. Titration of each antibody on NB1 cells for 2-4 hours at 4° C. was followed by incubation with a fluorescently-labeled secondary antibody. The normalized mean fluorescent intensity […] shown as “% Max binding” was plotted as a function of antibody concentration.
Flow cytometry was utilized to measure the affinity at steady state (KD) with which different ALK antibodies bind to ALK on the surface of NB1 cells (FIG. 3). Titration of each antibody on NB1 cells for 2-4 hours at 4° C. was followed by incubation with a fluorescently-labeled secondary antibody. The normalized mean fluorescent intensity (MFI) shown as “% Max binding” was plotted as a function of antibody concentration. The data were fit to a one site binding isotherm using GraphPad Prism, from which affinity values were derived.
as §3
(In general: In flow cytometry, cells or beads pass a laser one at a time.)

T2 sequence (Q9UM73 19-1620 F1174L): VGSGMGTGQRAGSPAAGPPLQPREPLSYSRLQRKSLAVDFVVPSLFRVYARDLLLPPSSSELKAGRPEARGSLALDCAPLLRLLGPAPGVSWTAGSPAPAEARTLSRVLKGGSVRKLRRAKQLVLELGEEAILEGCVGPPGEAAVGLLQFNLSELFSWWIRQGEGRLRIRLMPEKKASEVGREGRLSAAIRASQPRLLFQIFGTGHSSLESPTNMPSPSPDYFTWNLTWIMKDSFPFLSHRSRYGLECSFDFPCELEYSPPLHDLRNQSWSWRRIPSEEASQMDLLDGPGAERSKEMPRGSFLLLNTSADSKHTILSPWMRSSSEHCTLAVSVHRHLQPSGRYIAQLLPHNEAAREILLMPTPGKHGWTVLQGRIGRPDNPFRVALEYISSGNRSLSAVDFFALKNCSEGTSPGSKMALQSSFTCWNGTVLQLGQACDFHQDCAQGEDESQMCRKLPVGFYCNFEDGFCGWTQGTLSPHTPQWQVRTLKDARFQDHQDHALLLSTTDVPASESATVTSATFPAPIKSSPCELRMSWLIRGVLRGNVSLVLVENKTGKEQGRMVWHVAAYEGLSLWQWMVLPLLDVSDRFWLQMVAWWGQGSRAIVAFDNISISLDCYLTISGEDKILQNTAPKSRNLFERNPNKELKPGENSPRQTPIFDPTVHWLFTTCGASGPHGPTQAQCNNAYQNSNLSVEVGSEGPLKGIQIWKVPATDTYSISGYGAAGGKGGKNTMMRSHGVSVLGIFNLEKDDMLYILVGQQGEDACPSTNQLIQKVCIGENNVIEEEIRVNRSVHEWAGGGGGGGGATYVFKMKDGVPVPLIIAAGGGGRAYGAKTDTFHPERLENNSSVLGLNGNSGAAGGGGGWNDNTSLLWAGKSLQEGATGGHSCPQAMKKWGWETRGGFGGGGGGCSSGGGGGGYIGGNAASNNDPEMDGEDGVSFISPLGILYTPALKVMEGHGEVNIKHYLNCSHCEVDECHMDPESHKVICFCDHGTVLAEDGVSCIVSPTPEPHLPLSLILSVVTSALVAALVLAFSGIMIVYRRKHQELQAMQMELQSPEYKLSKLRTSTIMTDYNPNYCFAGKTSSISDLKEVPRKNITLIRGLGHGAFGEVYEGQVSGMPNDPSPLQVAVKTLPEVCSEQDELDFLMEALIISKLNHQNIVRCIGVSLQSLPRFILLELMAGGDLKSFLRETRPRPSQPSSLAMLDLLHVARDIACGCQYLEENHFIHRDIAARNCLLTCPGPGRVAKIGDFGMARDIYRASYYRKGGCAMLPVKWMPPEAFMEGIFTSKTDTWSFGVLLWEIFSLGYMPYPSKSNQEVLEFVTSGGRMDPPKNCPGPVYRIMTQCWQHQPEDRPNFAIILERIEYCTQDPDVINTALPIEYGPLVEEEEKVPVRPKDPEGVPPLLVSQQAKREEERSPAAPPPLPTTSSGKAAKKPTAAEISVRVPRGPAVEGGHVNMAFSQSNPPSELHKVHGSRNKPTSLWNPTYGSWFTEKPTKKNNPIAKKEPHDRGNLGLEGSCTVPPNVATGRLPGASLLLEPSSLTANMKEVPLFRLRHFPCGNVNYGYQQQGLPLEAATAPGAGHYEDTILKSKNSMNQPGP
Chain of C-terminal region of human ALK ECD (T637-S1038) (Q9UM73 19-1620): as the sequence (Q9UM73 19-1620 F1174L) above, with L1156F counted along it
Chain of murine ALK (purified mouse ALK antigen) (P97793 19-1042 limits assumed): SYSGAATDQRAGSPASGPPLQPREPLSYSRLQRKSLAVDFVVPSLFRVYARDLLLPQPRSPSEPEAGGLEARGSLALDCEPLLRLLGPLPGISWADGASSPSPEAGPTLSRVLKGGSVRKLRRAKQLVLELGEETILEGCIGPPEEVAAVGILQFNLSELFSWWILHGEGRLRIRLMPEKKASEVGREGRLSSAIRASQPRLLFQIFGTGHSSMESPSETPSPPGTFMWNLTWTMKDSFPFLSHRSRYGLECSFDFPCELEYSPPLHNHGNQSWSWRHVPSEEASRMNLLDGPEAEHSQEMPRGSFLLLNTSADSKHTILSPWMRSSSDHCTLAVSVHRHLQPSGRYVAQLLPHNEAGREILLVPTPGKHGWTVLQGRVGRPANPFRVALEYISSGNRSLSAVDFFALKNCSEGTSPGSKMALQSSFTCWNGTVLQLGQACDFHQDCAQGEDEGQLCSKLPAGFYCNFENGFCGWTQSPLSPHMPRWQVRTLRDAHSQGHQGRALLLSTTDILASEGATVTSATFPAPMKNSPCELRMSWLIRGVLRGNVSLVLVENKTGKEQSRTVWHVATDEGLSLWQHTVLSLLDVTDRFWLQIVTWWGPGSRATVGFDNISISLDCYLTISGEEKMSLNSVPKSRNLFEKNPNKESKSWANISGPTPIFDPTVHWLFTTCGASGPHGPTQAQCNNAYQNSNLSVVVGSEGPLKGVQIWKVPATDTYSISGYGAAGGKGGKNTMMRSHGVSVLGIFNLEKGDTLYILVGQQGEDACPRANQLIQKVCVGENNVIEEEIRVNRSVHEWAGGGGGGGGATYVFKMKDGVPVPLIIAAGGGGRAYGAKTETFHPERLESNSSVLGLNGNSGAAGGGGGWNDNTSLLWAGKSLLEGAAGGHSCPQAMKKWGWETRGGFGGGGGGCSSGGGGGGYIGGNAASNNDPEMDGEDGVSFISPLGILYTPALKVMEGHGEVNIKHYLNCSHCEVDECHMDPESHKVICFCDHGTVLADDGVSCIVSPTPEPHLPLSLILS
T1 sequence (P97793 19-1621): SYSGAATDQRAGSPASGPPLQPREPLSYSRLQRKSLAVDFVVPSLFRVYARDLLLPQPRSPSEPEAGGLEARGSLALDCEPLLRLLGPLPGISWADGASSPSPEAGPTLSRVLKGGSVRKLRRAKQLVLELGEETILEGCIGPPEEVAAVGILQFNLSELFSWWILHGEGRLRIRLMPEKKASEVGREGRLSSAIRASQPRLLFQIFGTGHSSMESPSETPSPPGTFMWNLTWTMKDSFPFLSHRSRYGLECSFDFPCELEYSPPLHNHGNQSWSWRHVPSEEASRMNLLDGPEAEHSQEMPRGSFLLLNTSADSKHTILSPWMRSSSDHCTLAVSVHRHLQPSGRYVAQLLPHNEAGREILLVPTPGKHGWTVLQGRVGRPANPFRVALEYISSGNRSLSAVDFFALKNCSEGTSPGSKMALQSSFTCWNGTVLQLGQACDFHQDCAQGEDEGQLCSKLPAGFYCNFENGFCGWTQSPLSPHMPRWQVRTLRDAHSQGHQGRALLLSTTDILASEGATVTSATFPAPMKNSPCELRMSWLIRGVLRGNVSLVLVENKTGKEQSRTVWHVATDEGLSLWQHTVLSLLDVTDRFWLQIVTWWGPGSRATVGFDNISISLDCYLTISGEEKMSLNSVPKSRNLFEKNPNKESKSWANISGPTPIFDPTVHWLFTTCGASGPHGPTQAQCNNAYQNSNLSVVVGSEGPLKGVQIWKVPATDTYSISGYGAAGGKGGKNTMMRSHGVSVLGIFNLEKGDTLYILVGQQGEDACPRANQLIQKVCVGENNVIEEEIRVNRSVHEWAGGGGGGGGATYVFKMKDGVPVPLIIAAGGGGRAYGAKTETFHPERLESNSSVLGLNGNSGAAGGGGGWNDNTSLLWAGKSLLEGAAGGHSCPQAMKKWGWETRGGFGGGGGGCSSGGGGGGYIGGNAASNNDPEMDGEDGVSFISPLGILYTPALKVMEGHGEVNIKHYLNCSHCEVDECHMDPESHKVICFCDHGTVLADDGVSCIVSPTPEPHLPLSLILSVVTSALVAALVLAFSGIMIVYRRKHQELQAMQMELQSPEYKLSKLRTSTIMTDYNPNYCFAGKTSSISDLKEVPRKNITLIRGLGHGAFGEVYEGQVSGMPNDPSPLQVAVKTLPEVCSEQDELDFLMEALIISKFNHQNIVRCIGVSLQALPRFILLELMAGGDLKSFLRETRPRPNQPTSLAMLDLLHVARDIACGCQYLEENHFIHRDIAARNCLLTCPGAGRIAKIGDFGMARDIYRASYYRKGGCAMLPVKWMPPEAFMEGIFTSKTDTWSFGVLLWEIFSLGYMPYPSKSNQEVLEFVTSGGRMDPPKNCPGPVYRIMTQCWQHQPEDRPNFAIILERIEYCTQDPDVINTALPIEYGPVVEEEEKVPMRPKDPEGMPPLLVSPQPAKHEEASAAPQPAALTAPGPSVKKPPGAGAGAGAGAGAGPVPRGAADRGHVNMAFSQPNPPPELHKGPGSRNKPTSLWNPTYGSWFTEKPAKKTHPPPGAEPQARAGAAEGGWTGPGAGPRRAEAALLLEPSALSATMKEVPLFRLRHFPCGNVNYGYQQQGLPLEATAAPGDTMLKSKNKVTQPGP

B1: Ab326: anti-ALK monoclonal antibody; VL SEQ ID NO: 407, VH SEQ ID NO: 408 (antibody, V domains shown)
VH: QVQLQQSGAELAKPGASVKLSCKASGYTFTSYWMHWVKQRPGQGLEWIGYIKPSSGYTKYNQKFKDKATLTADKSSSTAYMQLSSLTYEDSAVYYCARDYYGSSSWFAYWGQGTLVTVSA
VL: DIVMTQSQRFMSTSVGDRVSVTCKASQNVGTNVAWYQQKPGQSPKALIYSASYRYSGVPDRFTGSGSGTDFTLTISNVQSEDLAEYFCQQYNSYPYMYTFGGGTKLEIKR
modifications: VH domain - Ab326; VL domain - Ab326
Regarding B1, the “mouse ALK binding” value in data set [1] is reported as “+++”. Besides, the NB1 cell morphology result in data set [2] is on record as “rounded morphology”. In addition, the ALK turnover result in [3] is “−”. Also, in data set [4], the tumor volume result is given as “reduced”. The “effect on ALK activity (ALK inhibitory or ALK agonistic antibody)” value in data set [5] is reported as “inhibitory”. For the same molecule, the ALK phosphorylation result in data set [5] (effect in words) is “inhibitor”. For the same molecule, in data set [6], the “Bin/Domain (bin)” value is on record as 2. Besides, the “effect on the anti-proliferative effect of crizotinib” value in [7] is “enhanced”. For the same molecule, the figures for the dissociation constant Kd in data set [8] and in data set [10] were 0.58 nM and 0.94 nM, respectively. For the same molecule, the “phosphorylated ALK in tumor homogenates” value in data set [9] is “reduction”. Further, the “total ALK in tumor homogenates” value in data set [9] is on record as “reduction”.
